Assays:
[1] = test system: SUM149 cell-derived xenograft (CDX); assay: SUM149 cell-derived xenograft (CDX) model, orthotopic in mammary fat-pad, tumour growth; type: in vivo; conditions: SUM149 CDX mice, 4 weeks; Omomyc 50 mg/kg intravenous once a week; Olaparib 50 mg/kg oral gavage 6 times a week; preliminary
Method: SUM149 cell-derived xenograft (CDX) model mice were used for in vivo studies. Each mouse was inoculated orthotopically in the mammary fat-pad with 5 million cells. As the tumours reached 100 mm^3, mice were randomised in 4 treatment groups. Specifically, mice were treated with Omomyc once a week (50 mg/kg, intravenous), with Olaparib 6 times a week (50 mg/kg oral gavage), with the combination of the 2 drugs (combo) or with vehicle alone for 4 weeks. Relative volume was calculated as a percentage of tumour growth from the day of randomization and beginning of treatments. At end-point the average of the groups were respectively: vehicle 901.8%, Omomyc 663.6%, Olaparib 623.6%, and combination 335.8%.

MIA-PACA-2 cells = assay: Viability of PDAC MIA-PACA-2 cells treated alone and in combination for 5 days; synergy score by SynergyFinder.org; type: cell-based; conditions: MIA-PACA-2 cells, Omomyc added to Olaparib
Excerpt: (§1) Synergy scores can be interpreted as the average excess response due to drug interactions. Synergy scores close to 0 give limited confidence in synergy or antagonism. So, when the synergy scores are: less than −10, the interaction between two drugs is likely to be antagonistic. From −10 to 10, the interaction between two drugs is likely to be additive. Greater than 10, the interaction between two drugs is likely to be synergistic.
Pancreatic ductal adenocarcinoma (PDAC) MIA-PACA-2 cells were treated with increasing concentrations of Olaparib and the Omomyc peptide sequence SEQ ID NO: 4 alone and in combination, for 5 days.
Then synergy score was calculated by SynergyFinder.org after having carried out 3 biological replicates as described above.

MDA-MB-231 cells [2] = assay: Viability of MDA-MB-231 TNBC cells treated alone and in combination for 5 days; synergy score by SynergyFinder.org; type: cell-based; conditions: single agent, 5 days (FIG. 1A)
Method: Triple negative breast cancer (TNBC) cell lines MDA-MB-231, SUM149 and MX-1 were treated with increasing concentrations of Olaparib or Talazoparib and the Omomyc peptide sequence SEQ ID NO: 4, alone and in combination, for 5 days.
Then synergy score was calculated by SynergyFinder.org after having carried out 3 biological replicates.
as §1

MDA-MB-231 cells [3] = assay: Microarray analysis of gene expression in MDA-MB-231 cells; type: cell-based; conditions: data not shown

B1: Omomyc: Purified recombinant polypeptide of SEQ ID NO: 4: mutated bHLHZip domain of Myc (E61T, E68I, R74Q, R75N) with N-terminal methionine (protein)
chain: TEENVKRRTHNVLERQRRNELKRSFFALRDQIPELENNEKAPKVVILKKATAYILSVQAETQKLISEIDLLRKQNEQLKHKLEQLRNSCA
Relative volume, percentage of tumour growth from the day of randomization (group average at end-point) [1]: 663.6%
reversal of olaparib resistance (MIA-PACA-2 cells): able to revert olaparib resistance
viability of cells (MDA-MB-231 cells [2]): significantly reduces viability
expression of homologous recombination (HR-) and BRCA1/2-deficiency related genes and pathways (MDA-MB-231 cells [3]): reduces the expression
